A short description of assay [1]: Heparin binding assay (HiTrap Heparin column, NaCl gradient). Particulars: data not shown. How it is done: A: 70 μg of DrKIn-I in 0.1 ml equilibrating buffer (20 mM Tris-HCl, pH 8.0) was applied to a 5 ml HiTrap Heparin column and eluted with a 50 ml gradient from 0.0-1.0 M NaCl. The salt concentration corresponding to the elution peak was determined to be 0.95 M. B, Binding of DrKIn-I (0.78, 1.56, 2.34, 3.13, 4.68 and 6.25 nM) to immobilized APC was assessed in buffer containing 10 mM HEPES, 0.15 M NaCl, 3 mM EDTA and 0.05% P20 at a flow rate of 60 μl/min at 25° C. […] The thin lines represent the global fit to the response data. […] Results shown are means±SD of three experiments. Representative binding traces are shown.

Assay [2] addresses T1, human activated protein C (Homo sapiens, UniProt P04070).
T1 construct: purchased Haematologic Technologies
The experiment in a line: Inhibition of APC amidolytic activity (Spectrozyme PCa chromogenic substrate). Format: biochemical. How it is done:
B: Dose-response curves of APC (10 nM) inhibition by DrKIn-I in the absence (◯) and presence (●) of 0.1 U/ml heparin. C: To determine the minimum concentration of heparin required for the potentiation APC inhibition, the activity of APC (20 nM) was measured after the addition of DrKIn-I (20 nM) and varying concentrations of heparin (0-1000 mU/ml). D: To assess the ability of heparan sulfate and the minimum length of heparan sulfate required to potentiate DrKIn-I-mediated APC inhibition, the amidolytic activity of APC was determined in the presence of DrKIn-I (20 nM) and different lengths of heparan sulfate chains (10 μg/ml each). E, Time course of FVa inactivation by APC (1 nM) was assessed in the absence (●) or presence (▪) of 5 nM DrKIn-I, or in the presence of 5 nM DrKIn-I supplemented with 0.1 U/ml heparin (▴), as described in “Materials and methods”. F, The effect of DrKIn-I (0-250 nM) and/or heparin (0.1 U/ml) on APC-mediated FVa inactivation was determined after 10 minutes of incubation at 37° C. with APC (5 nM). Results shown are means±SD of three experiments.
All inhibition assays were performed in 96-wells microtiter plates in 25 mM Tris-HCl (pH 7.4), 150 mM NaCl, 2.5 mM CaCl2 and 5 mg/ml BSA. For comparison between DrKIn-I and DrKIn-II, the amidolytic activity of 10 nM APC, with or without 0.1 U/ml heparin, was assayed in the presence or absence of equal molar concentrations of DrKIn-I or DrKIn-II. Immediately after the addition of APC, Spectrozyme PCa was added and the rates of p-nitroaniline release were monitored at 405 nm for 10 minutes at 37° C. For dose response curves, APC was mixed with different concentrations of DrKIn-I in the presence or absence of heparin. The final concentrations were as follows: APC (10 nM), heparin (0.1 U/ml) and DrKIn-I (0-100 nM in the presence of heparin and 0-12800 nM in the absence of heparin). Dose-response curves were fitted using GraphPad Prism (GraphPad Software). In other inhibition experiments, varying concentrations of heparin ([…]) or different lengths of heparan sulfate chains (10 μg/ml) were added to equimolar concentrations of APC and DrKIn-I (20 nM each). In all the inhibition experiments, Spectrozyme PCa was added to a final concentration of 0.2 mM. Changes in absorbance were measured using SpectraMax M2^e Microplate Reader (Molecular Devices).

Assay [3] concerns the target T2, APC (Homo sapiens, UniProt P04070). The experiment in a line: APC inhibition by recombinant DrKIn-I wild type and mutants (S-2366 chromogenic substrate). It counts as biochemical. Particulars: APC 20 nM, S-2366 0.4 mM. The source says: A: amino acid alignment of the C-terminal regions of the wild-type DrKIn-I peptide and three mutants, which were generated by either deleting or mutating (alanine substitution; denoted by bold letters) one or both of the C-terminus heparin binding motifs. Underlined amino acids are the putative heparin binding motifs. B: SDS-PAGE analysis of the wild-type and mutant DrKIn-I peptides. Wild-type: SEQ ID NO:3. Mutant 1: SEQ ID NO:4. Mutant 2: SEQ ID NO:5. Mutant 3: SEQ ID NO:6. C-D: Inhibitory effect of DrKIn-I wild type (●), mutant 1 (▴), mutant 2 (▾) and mutant 3 (▪) on APC (20 nM) in the presence (C) or absence (D) of heparan sulfate (10 μg/ml). Activity of APC without the addition of inhibitors was considered as 100%.
The wild-type DrKIn-I and the mutants at various concentrations were mixed with APC (20 nM) in the presence of heparin or heparan sulfate (10 μg/ml). After 3 minutes of incubation, a chromogenic substrate S-2366 (0.4 mM) was added and the rate of p-nitroaniline release was monitored at 405 nm for 10 minutes at 37° C. […] On the other hand, Mutants 1 and 2 inhibit APC in the presence of heparin.
Target sequence in this assay (P04070 212-450 limits assumed): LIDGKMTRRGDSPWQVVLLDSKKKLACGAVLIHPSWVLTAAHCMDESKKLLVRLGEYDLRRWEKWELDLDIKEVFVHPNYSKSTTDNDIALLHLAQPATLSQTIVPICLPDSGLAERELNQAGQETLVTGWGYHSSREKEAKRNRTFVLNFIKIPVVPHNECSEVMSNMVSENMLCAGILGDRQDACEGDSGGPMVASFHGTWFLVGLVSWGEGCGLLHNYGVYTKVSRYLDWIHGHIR
Target sequence in this assay (P04070 43-197 limits assumed): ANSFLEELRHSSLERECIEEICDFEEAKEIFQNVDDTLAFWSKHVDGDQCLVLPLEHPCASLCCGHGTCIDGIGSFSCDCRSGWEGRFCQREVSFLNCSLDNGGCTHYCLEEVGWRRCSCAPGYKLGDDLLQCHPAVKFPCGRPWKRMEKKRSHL

A further assay concerns plasmin. The experiment in a line: Euglobulin clot lysis assay. It counts as biochemical.
Assay [4] deals with T2, APC. The conditions noted are these: in the absence of heparin; cited from earlier work.
Target sequence in this assay (P04070 212-461 limits assumed): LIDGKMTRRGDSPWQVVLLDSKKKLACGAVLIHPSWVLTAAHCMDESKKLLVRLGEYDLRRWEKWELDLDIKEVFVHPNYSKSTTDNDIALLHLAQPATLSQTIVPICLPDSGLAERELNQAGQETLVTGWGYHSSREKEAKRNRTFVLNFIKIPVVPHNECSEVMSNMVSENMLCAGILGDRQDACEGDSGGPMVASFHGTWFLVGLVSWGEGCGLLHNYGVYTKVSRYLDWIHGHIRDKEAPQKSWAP
Target sequence in this assay (P04070 43-197 limits assumed): as the sequence (P04070 43-197 limits assumed) above

T1 sequence (P04070 212-450 limits assumed): as the sequence (P04070 212-450 limits assumed) above
T1 sequence (P04070 43-197 limits assumed): as the sequence (P04070 43-197 limits assumed) above

Consider “DrKIn-II (HDRPTFCNLAPESGRCRAHLRRIYYNLESNKCEVFFYGGCGGNDNNFSTWDECRHTCVGK)”, for which the “affinity towards heparin column” value in assay [1] is “no affinity towards heparin column”. Further, the “inhibitory activity against APC in the absence of heparin” value in assay [2] (10 nM inhibitor, 10 nM APC, no heparin) is “little inhibitory activity against APC”. In addition, in assay [2] (equimolar inhibitor and APC (10 nM each), 0.1 U/ml heparin, Spectrozyme PCa 0.2 mM), the “decrease of APC activity (inhibition of APC amidolytic activity)” value is given as roughly 20%. For the same molecule, the “inhibitory activity against APC” value in assay [2] (summary statement in discussion) is “no inhibitory activity against APC”.
With “Mutant 1: Recombinant DrKIn-I mutant R50A/K51A/K52A lacking one of the two heparin binding sites (CGGNDNNFETAAACRQTCGAPRKGRPT)”, the “APC inhibition in the presence of heparin” value with APC [3] was “inhibit APC”.
The same measure, in the same setting: the result for “Mutant 2: Recombinant DrKIn-I deletion mutant Δ60-66 lacking one of the two heparin binding sites (CGGNDNNFETRKKCRQTCGA)” reads “inhibit APC”.
In the case of aprotinin [reference compound], the “prolongation of euglobulin clot lysis time” value is roughly 9 h with plasmin (20 nM inhibitor) and “more than 16 hours” in the assay with plasmin (100 nM inhibitor).
With heparin [reference compound], the “effect of heparin alone on APC activity” value in assay [2] (heparin alone 0.1 U/ml, regardless of the type of substrate (Spectrozyme PCa or FVa)) is recorded as “did not alter the activity of APC”.

B1: protein C inhibitor: plasma APC inhibitor belonging to the serpin family (protein, UniProt P05154 26-406, looked up)
Plasma serine protease …: EMKKRVEDLHVGATVAPSSRRDFTFDLYRALASAAPSQSIFFSPVSISMSLAMLSLGAGSSTKMQILEGLGLNLQKSSEKELHRGFQQLLQELNQPRDGFQLSLGNALFTDLVVDLQDTFVSAMKTLYLADTFPTNFRDSAGAMKQINDYVAKQTKGKIVDLLKNLDSNAVVIMVNYIFFKAKWETSFNHKGTQEQDFYVTSETVVRVPMMSREDQYHYLLDRNLSCRVVGVPYQGNATALFILPSEGKMQQVENGLSEKTLRKWLKMFKKRQLELYLPKFSIEGSYQLEKVLPSLGISNVFTSHADLSGISNHSNIQVSEMVHKAVVEVDESGTRAAAATGTIFTFRSARLNSQRLVFNRPFLMFIVDNNILFLGKVNRP
B1: the “second order rate constant of APC inhibition” value in the assay with APC [4] was 2500 M⁻¹ s⁻¹.

(Values after patent US9206246B2, “Heparin/heparan sulfate-dependent inhibitors of activated protein C and uses thereof in treating hemophilic disorders” (Academia Sinica, priority 2012, dated 2015).)
